Literature values, collected in publication PMC3522611.

Biological target: EGFR (Homo sapiens) (UniProt P00533)

For HB-EGF (from UniProt Q99075), the Kd is given as 3.8 nM.
